Consider five molecules from article PMC10709064, “The leucine zipper domain of the transcriptional repressor Opi1 underlies a signal transduction mechanism regulating lipid synthesis” (The Journal of Biological Chemistry, 2023).

Positions count from the first letter of the chain named. Numbers in names are those of the source.

T1: MBP-N-Opi1^N150D (S. cerevisiae, UniProt P21957 1-190, N150D)
T1 construct: Opi1, S. cerevisiae, N terminus from aa1 to aa190 (N-Opi1) with N150D; pMAL-c expression vector; amplified from mutant OPI1 DNA template; source: for SEC further run on Superdex 200 Increase; not shown: MBP, N-terminal, kept
T1 sequence (looked up): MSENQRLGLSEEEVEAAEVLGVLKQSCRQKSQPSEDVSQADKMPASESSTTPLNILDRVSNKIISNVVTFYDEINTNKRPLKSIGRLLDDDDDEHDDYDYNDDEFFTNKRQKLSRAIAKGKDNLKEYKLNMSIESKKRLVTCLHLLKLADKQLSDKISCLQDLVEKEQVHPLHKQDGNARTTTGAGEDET

T2: MBP-N-Opi1^3L (L146A, L153S, L160A) (S. cerevisiae, UniProt P21957 1-190, L146A | L153S | L160A)
T2 construct: Opi1, S. cerevisiae, N terminus from aa1 to aa190 (N-Opi1) with the 3L mutations L146A L153S L160A; pMAL-c expression vector; not shown: MBP, N-terminal, kept
T2 sequence (looked up): T1 sequence (looked up) with L146A, D150N, L153S, L160A

T3: GST-N-Opi1^3L (L146A, L153S, L160A) (S. cerevisiae, UniProt P21957 1-190, L146A | L153S | L160A)
T3 construct: Opi1, S. cerevisiae, N terminus from aa1 to aa190 (N-Opi1) with the 3L mutations L146A L153S L160A; pGEX-4T-1 expression vector; not shown: GST, N-terminal, kept
T3 sequence (looked up): T1 sequence (looked up) with L146A, D150N, L153S, L160A

T4: GST-N-Opi1^N150D (S. cerevisiae, UniProt P21957 1-190, N150D)
T4 construct: Opi1, S. cerevisiae, N terminus from aa1 to aa190 (N-Opi1) with N150D; pGEX-4T-1 expression vector; not shown: GST, N-terminal, kept
T4 sequence (looked up): T1 sequence (looked up)

T5: GST-N-Opi1^WT (glutathione-S-transferase fused to Opi1 aa1-190) (S. cerevisiae, UniProt P21957 1-190)
T5 construct: Opi1, S. cerevisiae, N terminus from aa1 to aa190 (N-Opi1), holds the leucine zipper (aa 139-166); pGEX-4T-1 expression vector; also called N-Opi1^1-190; not shown: GST, N-terminal, kept
T5 sequence (looked up): T1 sequence (looked up) with D150N

B1: MBP-N-Opi1^WT (maltose-binding protein fused to the N-terminal Opi1^1-190 polypeptide) (domain or fragment, S. cerevisiae, UniProt P21957 1-190, looked up)
chain: T1 sequence (looked up) with D150N
notes: Opi1, S. cerevisiae, N terminus from aa1 to aa190 (N-Opi1), holds the leucine zipper (aa 139-166); pMAL-c expression vector; also called N-Opi1^1-190; source: for SEC further run on Superdex 200 Increase; not shown: MBP, N-terminal, kept
B2: GST-C-Opi1^WT (glutathione-S-transferase fused to Opi1 aa291-404) (domain or fragment, S. cerevisiae, UniProt P21957 291-404, looked up)
chain: QQQQQQQQLLQQQLLQQQQQKRNKDGDDSASPSSSVTANGKVLILAKESLEMVRNVMGVVDSTLGKAEEWVKQKQEVKEMIRERFLQQQQQYRQQQQKDGNYVKPSQDNVDSKD
notes: Opi1, S. cerevisiae, C terminus from aa291 to aa404 (C-Opi1), holds the AID (aa 321-379); pGEX-4T-1 expression vector; also called C-Opi1^291-404; Opi1^291-404; not shown: GST, N-terminal, kept
B3: GST-C-Opi1^S339F (domain or fragment, S. cerevisiae, UniProt P21957 291-404, looked up)
chain: B2 chain with S49F
notes: Opi1, S. cerevisiae, C terminus from aa291 to aa404 (C-Opi1) with S339F; pGEX-4T-1 expression vector; loss of function mutation known from earlier genetic work; not shown: GST, N-terminal, kept
B4: MBP-C-Opi1^WT (maltose-binding protein fused to Opi1 aa291-404) (domain or fragment, S. cerevisiae, UniProt P21957 291-404, looked up)
chain: B2 chain
notes: Opi1, S. cerevisiae, C terminus from aa291 to aa404 (C-Opi1), holds the AID (aa 321-379); pMAL-c expression vector; also called C-Opi1^291-404; Opi1^291-404; not shown: MBP, N-terminal, kept
B5: GST-C-Opi1^V343E (domain or fragment, S. cerevisiae, UniProt P21957 291-404, looked up)
chain: B2 chain with V53E
notes: Opi1, S. cerevisiae, C terminus from aa291 to aa404 (C-Opi1) with V343E; pGEX-4T-1 expression vector; loss of function mutation known from earlier genetic work; not shown: GST, N-terminal, kept

Series [1] deals with the molecule itself. Nature of the series: SEC; 0.5 mg of affinity-purified MBP fusion on Superdex 200 Increase 10/300 GL, 20 mM Tris-HCl pH 7.4, 150 mM NaCl, 0.5 ml/min; molecular weights estimated from calibration markers.
The target in series [2] is B1. Description: pull-down; as the pull-down with alternate tags, but binding reactions carried out at decreasing reactant concentrations (relative volume of the binding reaction varied); prey detected by Western blot. The settings on record: both partners purified.
The target of another series is T1, MBP-N-Opi1^N150D. The description is as above. The conditions noted are these: both partners purified.
Series [3] deals with T2, MBP-N-Opi1^3L (L146A, L153S, L160A). Described as above. The settings on record: both partners purified.
The target of series [4] is T3, GST-N-Opi1^3L (L146A, L153S, L160A). The description is as above. The conditions noted are these: both partners purified.
Another series concerns the target T4, GST-N-Opi1^N150D. The description is as above. The settings on record: both partners purified.
The target in series [5] is T5, GST-N-Opi1^WT …. Nature of the series: pull-down; around 0.5 ug bait on amylose resin or glutathione-Sepharose with 1.5 ug prey of the alternate tag in 100 ul binding buffer (20 mM Tris-HCl pH 8, 150 mM NaCl, 1 mM EDTA, 1 mM DTT, 20% glycerol, 0.05% Triton X-100) with 50 ug/ml BSA, 2 h at 4 C; bait eluted with its ligand, prey detected by Western blot against MBP or GST. The conditions noted are these: both partners purified. Background: In western blotting, separated proteins are transferred to a membrane and probed.

Turning to B1, the stoichiometry N (in general, a count of units in the complex or per binding partner) in series [1] is ~2.

Consider B2, for which the binding result (in series [2]; with MBP-N-Opi1^N150D; in series [3]) was “binds” each time.

With B3, the binding result in series [2] is given as “binds”.

As to B4, the binding result (in series [4]; in the series with GST-N-Opi1^N150D; in series [5]) was “binds” each time.

Consider B5, for which the binding result in series [2] was “binds”.
